This note sets out measurements from the supplement of paper PMC10598134.

The data set is described as follows: collision cross section of modified peptide (TIMS, N2, iRT-aligned); higher = larger / more extended gas-phase ion. The method in brief:
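Synthetic peptide pools (~100 fmol/µL in 2% acetonitrile/0.1% formic acid, iRT standard spiked 1:40) were separated on a 120-min nanoflow C18 gradient at 60 °C. They were analysed on a timsTOF Pro/HT (dda-PASEF, nitrogen, ~2.4 mbar) and identified with MaxQuant. 1/K0 was calibrated with three reference ions and aligned run-wise to the median iRT peptide deviation. Collision cross section came from the Mason-Schamp equation, averaging 1–3 technical replicates of the most abundant feature per charge state.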

[1] abbreviates: charge state: 2, modification: Dimethyl (K).
The mark [2] stands for this setting: charge state: 2, modification: Formyl.
The mark [3] stands for this setting: charge state: 2, modification: Glutarylation.
The mark [4] stands for this setting: charge state: 2, modification: GlyGly (K).
The mark [5] stands for this setting: charge state: 3, modification: GlyGly (K).
[6] abbreviates: charge state: 2, modification: Malonyl.
Where [7] appears, read: charge state: 2, modification: Methyl (K).
Setting [8] is: charge state: 3, modification: Methyl (K).
Setting [9] is: charge state: 2, modification: Propionyl.
Setting [10] is: charge state: 2, modification: Succinyl.
Where [11] appears, read: charge state: 2, modification: Trimethyl (K).
The mark [12] stands for this setting: charge state: 3, modification: Trimethyl (K).
[13] abbreviates: charge state: 2, modification: hydroxyisobutyryl.
[14] abbreviates: charge state: 2, modification: HexNAc (ST).
Where [15] appears, read: charge state: 3, modification: HexNAc (ST).
[16] abbreviates: charge state: 2, modification: Acetyl (K).
Where [17] appears, read: charge state: 2, modification: Biotin.
Setting [18] is: charge state: 2, modification: Butyryl.
[19] abbreviates: charge state: 2, modification: Crotonyl.
[20] abbreviates: charge state: 3, modification: Dimethyl (K).
Setting [21] is: charge state: 2, modification: Nitro (Y).
Setting [22] is: charge state: 3, modification: Nitro (Y).
Where [23] appears, read: charge state: 2, modification: Phospho (Y).

± gives the standard deviation.

The sequence KFGVLSDNFK [_K(Dimethyl (K))FGVLSDNFK_] showed a collision cross section under setting [1] of 367.27 ± 1.5 Å².

With KFGVLSDNFK [_K(Formyl)FGVLSDNFK_], under setting [2], the collision cross section stood at 368.1 ± 0.89 Å².

On to “KFGVLSDNFK [_K(Gluratylation)FGVLSDNFK_]”, for which the collision cross section under setting [3] was 380.33 ± 0.73 Å².

In the case of KFGVLSDNFK [_K(GlyGly (K))FGVLSDNFK_], the collision cross section runs as follows: under setting [4], 380.5 ± 0.25 Å²; under setting [5], 435.06 ± 2 Å².

KFGVLSDNFK [_K(Malonyl)FGVLSDNFK_] yielded a collision cross section under setting [6] of 373.81 ± 0.63 Å².

As to KFGVLSDNFK [_K(Methyl (K))FGVLSDNFK_], the collision cross section is reported as 372.37 ± 0.47 Å² under setting [7] and 448.39 ± 4.9 Å² under setting [8].

In turn, KFGVLSDNFK [_K(Propionyl)FGVLSDNFK_] returned a collision cross section under setting [9] of 374.07 ± 0.33 Å².

Take KFGVLSDNFK [_K(Succinyl)FGVLSDNFK_]: the collision cross section under setting [10] is recorded as 376.58 ± 0.24 Å².

As to “KFGVLSDNFK [_K(Trimethyl (K))FGVLSDNFK_]”, the collision cross section runs as follows: under setting [11], 372.9 ± 0.61 Å²; under setting [12], 457.56 Å².

“KFGVLSDNFK [_K(hydroxyisobutyryl)FGVLSDNFK_]” showed a collision cross section under setting [13] of 378.39 ± 0.91 Å².

With “KITESVAETAQTIK [_KITESVAETAQT(HexNAc (ST))IK_]”, the collision cross section is, setting by setting: under setting [14], 451.91 ± 0.56 Å²; under setting [15], 504.11 ± 1.1 Å².

Sequence “KSQAGASELGPFSDPR [_KSQAGASELGPFS(HexNAc (ST))DPR_]” gave a collision cross section under setting [15] of 503.83 ± 1.1 Å².

Take KVQFAPEK [_KVQFAP(Hydroxyproline)EK_]: where the note is “charge state: 2, modification: Hydroxyproline”, the collision cross section came out at 331.99 ± 1.4 Å².

As to KVTLSVLSR [_KVT(HexNAc (ST))LSVLSR_], the collision cross section under setting [14] turned out to be 375.11 ± 0.13 Å² and the collision cross section under setting [15] amounted to 463.47 ± 1 Å².

For “KYEEIDNAPEER [_K(Acetyl (K))YEEIDNAPEER_]”, the collision cross section reads like this: under setting [16], 408.98 ± 1.6 Å²; (charge state: 3, modification: Acetyl (K)) 493.17 ± 8.3 Å².

For KYEEIDNAPEER [_K(Biotin)YEEIDNAPEER_], the collision cross section runs as follows: under setting [17], 430.04 ± 3.1 Å²; (charge state: 3, modification: Biotin) 521.46 ± 0.34 Å².

KYEEIDNAPEER [_K(Butyryl)YEEIDNAPEER_]: the collision cross section runs as follows: under setting [18], 413.71 ± 1.1 Å²; (charge state: 3, modification: Butyryl) 492.73 ± 3.5 Å².

Consider KYEEIDNAPEER [_K(Crotonyl)YEEIDNAPEER_], for which the collision cross section was determined as 413.83 ± 0.55 Å² under setting [19] and 493.07 ± 1.6 Å² (charge state: 3, modification: Crotonyl).

In the case of “KYEEIDNAPEER [_K(Dimethyl (K))YEEIDNAPEER_]”, the collision cross section came out at 402.53 ± 1.1 Å² under setting [1] and 484.37 ± 1.6 Å² under setting [20].

KYEEIDNAPEER [_K(Formyl)YEEIDNAPEER_] returned a collision cross section under setting [2] of 405.5 ± 0.74 Å².

As to “KYEEIDNAPEER [_K(Gluratylation)YEEIDNAPEER_]”, the collision cross section under setting [3] is given as 417.33 ± 0.59 Å² and the collision cross section (charge state: 3, modification: Glutarylation) amounted to 495.54 ± 1 Å².

On to “KYEEIDNAPEER [_K(GlyGly (K))YEEIDNAPEER_]”, for which the collision cross section amounted to 416.44 ± 0.85 Å² under setting [4] and 499.05 ± 3 Å² under setting [5].

In the case of KYEEIDNAPEER [_K(Malonyl)YEEIDNAPEER_], the collision cross section reads like this: under setting [6], 410.49 ± 0.6 Å²; (charge state: 3, modification: Malonyl) 491.92 ± 5.7 Å².

Regarding “KYEEIDNAPEER [_K(Methyl (K))YEEIDNAPEER_]”, the collision cross section was 398.83 ± 1.1 Å² under setting [7] and 466.31 ± 3.7 Å² under setting [8].

Regarding “KYEEIDNAPEER [_K(Propionyl)YEEIDNAPEER_]”, the collision cross section by setting is: under setting [9], 411.41 ± 0.64 Å²; (charge state: 3, modification: Propionyl) 491.8 Å².

KYEEIDNAPEER [_K(Succinyl)YEEIDNAPEER_]: the collision cross section runs as follows: under setting [10], 412.18 ± 0.54 Å²; (charge state: 3, modification: Succinyl) 490.15 Å².

On to “KYEEIDNAPEER [_K(Trimethyl (K))YEEIDNAPEER_]”, for which the collision cross section is on record as 405.59 ± 0.61 Å² under setting [11] and 490.14 ± 2.4 Å² under setting [12].

For “KYEEIDNAPEER [_K(hydroxyisobutyryl)YEEIDNAPEER_]”, the collision cross section under setting [13] amounted to 416.12 ± 0.31 Å² and the collision cross section (charge state: 3, modification: hydroxyisobutyryl) was found to be 497.05 ± 3.9 Å².

As to LAEEENKAK [_LAEEENK(Acetyl (K))AK_], under setting [16], the collision cross section turned out to be 348.53 ± 3.9 Å².

On to LAEEENKAK [_LAEEENK(Biotin)AK_], for which the collision cross section under setting [17] came to 371.22 Å².

On to LAEEENKAK [_LAEEENK(Butyryl)AK_], for which the collision cross section under setting [18] is listed as 353.86 ± 0.84 Å².

On to LAEEENKAK [_LAEEENK(Crotonyl)AK_], for which the collision cross section under setting [19] came out at 351.41 ± 1.1 Å².

Consider LAEEENKAK [_LAEEENK(Dimethyl (K))AK_], for which the collision cross section stood at 348.03 ± 0.59 Å² under setting [1] and 411.22 ± 2.8 Å² under setting [20].

Sequence LAEEENKAK [_LAEEENK(Formyl)AK_] displayed a collision cross section under setting [2] of 342.64 ± 1.5 Å².

Regarding LAEEENKAK [_LAEEENK(Gluratylation)AK_], under setting [3], the collision cross section was 353.09 ± 0.078 Å².

As for LAEEENKAK [_LAEEENK(GlyGly (K))AK_], the collision cross section under setting [4] was determined as 356.17 ± 0.39 Å² and the collision cross section under setting [5] was found to be 428.57 ± 0.75 Å².

LAEEENKAK [_LAEEENK(Malonyl)AK_]: the collision cross section under setting [6] was 346.72 ± 0.74 Å².

Regarding LAEEENKAK [_LAEEENK(Methyl (K))AK_], the collision cross section by setting is: under setting [7], 347.67 ± 0.66 Å²; under setting [8], 422.11 Å².

Sequence LAEEENKAK [_LAEEENK(Propionyl)AK_] yielded a collision cross section under setting [9] of 352.31 ± 0.33 Å².

Regarding LAEEENKAK [_LAEEENK(Succinyl)AK_], the collision cross section under setting [10] is reported as 348.59 ± 0.23 Å².

On to LAEEENKAK [_LAEEENK(Trimethyl (K))AK_], for which the collision cross section is 353.67 ± 0.62 Å² under setting [11] and 413.12 Å² under setting [12].

“LAEEENKAK [_LAEEENK(hydroxyisobutyryl)AK_]”: the collision cross section under setting [13] is 355.52 ± 0.78 Å².

For the sequence LAEQEAHYAVR [_LAEQEAHY(Nitro (Y))AVR_], the collision cross section is, setting by setting: under setting [21], 388.92 ± 0.55 Å²; under setting [22], 469.49 ± 1.9 Å².

For the sequence “LAEQEAHYAVR [_LAEQEAHY(Phospho (Y))AVR_]”, the collision cross section reads like this: under setting [23], 408.57 ± 0.76 Å²; (charge state: 3, modification: Phospho (Y)) 482.98 ± 0.1 Å².

Take LAPEYEAAATR [_LAPEY(Nitro (Y))EAAATR_]: the collision cross section is listed as 362.69 ± 1.2 Å² under setting [21] and 436.11 ± 1.1 Å² under setting [22].

Take “LAPEYEAAATR [_LAPEY(Phospho (Y))EAAATR_]”: under setting [23], the collision cross section is 374.2 ± 0.063 Å².

The sequence LDEKENLSAK [_LDEK(Acetyl (K))ENLSAK_] gave a collision cross section under setting [16] of 366.13 ± 0.94 Å².

Under setting [17], LDEKENLSAK [_LDEK(Biotin)ENLSAK_] yielded a collision cross section of 382.87 Å².

In turn, LDEKENLSAK [_LDEK(Butyryl)ENLSAK_] came in with a collision cross section under setting [18] of 370.93 ± 0.84 Å².

The sequence LDEKENLSAK [_LDEK(Crotonyl)ENLSAK_] showed a collision cross section under setting [19] of 370.68 ± 0.26 Å².

Turning to LDEKENLSAK [_LDEK(Dimethyl (K))ENLSAK_], the collision cross section came out at 364.75 ± 0.28 Å² under setting [1] and 441.27 Å² under setting [20].
